From paper PMC9482650, “Quantitative fragmentomics allow affinity mapping of interactomes” (Nature Communications, 2022)

T1: LIN7A, O14910
T1 sequence (O14910 103-200, limits assumed, looked up): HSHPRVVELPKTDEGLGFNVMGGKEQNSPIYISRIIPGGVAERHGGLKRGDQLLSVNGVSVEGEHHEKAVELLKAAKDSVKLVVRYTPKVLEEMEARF

T2: RADIL, Q96JH8
T2 sequence (Q96JH8 971-1071, limits assumed, looked up): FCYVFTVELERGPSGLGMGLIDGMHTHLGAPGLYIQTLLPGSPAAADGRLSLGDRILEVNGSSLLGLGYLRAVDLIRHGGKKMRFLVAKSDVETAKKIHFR

T3: TIAM2, Q8IVF5
T3 sequence (Q8IVF5 885-986, limits assumed, looked up): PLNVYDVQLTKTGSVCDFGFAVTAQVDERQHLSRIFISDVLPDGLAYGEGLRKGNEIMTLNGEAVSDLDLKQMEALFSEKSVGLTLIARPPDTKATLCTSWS

T4: MPDZ_10, O75970
T4 sequence (O75970 1624-1722, limits assumed, looked up): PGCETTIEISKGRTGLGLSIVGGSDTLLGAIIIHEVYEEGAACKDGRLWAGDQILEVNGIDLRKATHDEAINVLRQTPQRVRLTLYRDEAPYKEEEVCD

T5: NHERF3_1, Q5T2W1
T5 sequence (Q5T2W1 4-100, limits assumed, looked up): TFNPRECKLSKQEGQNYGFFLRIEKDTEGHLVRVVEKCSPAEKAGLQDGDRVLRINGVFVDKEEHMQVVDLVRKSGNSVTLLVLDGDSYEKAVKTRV

T6: PCLO, Q9Y6V0
T6 sequence (Q9Y6V0 4491-4600, limits assumed, looked up): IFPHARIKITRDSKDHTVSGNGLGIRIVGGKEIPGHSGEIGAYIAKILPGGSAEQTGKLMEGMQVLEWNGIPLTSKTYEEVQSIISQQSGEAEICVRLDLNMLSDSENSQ

T7: GRIP1_3, Q9Y3R0
T7 sequence (Q9Y3R0 247-346, limits assumed, looked up): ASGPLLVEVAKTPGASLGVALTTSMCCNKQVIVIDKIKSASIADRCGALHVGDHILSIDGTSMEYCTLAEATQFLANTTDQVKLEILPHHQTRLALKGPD

T8: APBA1_1, Q02410
T8 sequence (Q02410 651-752, limits assumed, looked up): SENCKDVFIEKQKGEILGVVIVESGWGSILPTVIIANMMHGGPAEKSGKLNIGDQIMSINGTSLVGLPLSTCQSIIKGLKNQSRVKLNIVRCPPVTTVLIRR

T9: GRIP1_7, Q9Y3R0
T9 sequence (Q9Y3R0 999-1096, limits assumed, looked up): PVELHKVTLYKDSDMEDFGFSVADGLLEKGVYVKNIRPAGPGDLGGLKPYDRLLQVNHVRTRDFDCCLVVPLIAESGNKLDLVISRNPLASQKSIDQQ

T10: GRIP1_2, Q9Y3R0
T10 sequence (Q9Y3R0 145-248, limits assumed, looked up): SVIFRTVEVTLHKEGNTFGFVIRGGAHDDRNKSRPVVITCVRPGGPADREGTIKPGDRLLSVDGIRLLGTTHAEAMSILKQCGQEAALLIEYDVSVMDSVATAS


What follows are binders tested against NHERF4_4, Q86UT5 (assay: holdup assay). Conditions: plain residues with an end cap or a label only (N-terminal biotin on a linker: ado-ado).
NHERF4_4, Q86UT5, sequence (Q86UT5 464-550): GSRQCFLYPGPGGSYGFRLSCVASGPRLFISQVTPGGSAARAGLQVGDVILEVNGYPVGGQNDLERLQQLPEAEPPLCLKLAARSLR
Set-up: key: below the threshold = too weak to quantify, mostly under pKd 3.1 to 4
With PPGKHLVTEV [KCNA7, Q96RP8] the pKd was “below the threshold”.

What follows are binders tested against TJP1_3, Q07157 (assay: holdup assay). Conditions: plain residues with an end cap or a label only (N-terminal biotin on a linker: ado-ado).
TJP1_3, Q07157, sequence (Q07157 416-512): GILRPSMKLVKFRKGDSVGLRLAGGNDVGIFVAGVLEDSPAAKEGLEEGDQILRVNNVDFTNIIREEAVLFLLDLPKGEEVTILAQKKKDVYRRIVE
Set-up: key: below the threshold = too weak to quantify, mostly under pKd 3.1 to 4
With PPGKHLVTEV [KCNA7, Q96RP8] the pKd was “below the threshold”.

What follows are binders tested against T1, LIN7A, O14910 (assay: holdup assay). Conditions: plain residues with an end cap or a label only (N-terminal biotin on a linker: ado-ado).
Set-up: key: below the threshold = too weak to quantify, mostly under pKd 3.1 to 4
For PPGKHLVTEV [KCNA7, Q96RP8], the pKd was “below the threshold”.

The binders below were run against GRIP2_7, Q9C0E4 (assay: holdup assay). Conditions: plain residues with an end cap or a label only (N-terminal biotin on a linker: ado-ado).
GRIP2_7, Q9C0E4, sequence (Q9C0E4 934-1023): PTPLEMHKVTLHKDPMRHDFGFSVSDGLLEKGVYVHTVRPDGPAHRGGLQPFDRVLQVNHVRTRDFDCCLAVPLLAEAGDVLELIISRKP
Set-up: key: below the threshold = too weak to quantify, mostly under pKd 3.1 to 4
For PPGKHLVTEV [KCNA7, Q96RP8], the pKd was “below the threshold”.

The binders below were run against T2, RADIL, Q96JH8 (assay: holdup assay). Conditions: plain residues with an end cap or a label only (N-terminal biotin on a linker: ado-ado).
Set-up: key: below the threshold = too weak to quantify, mostly under pKd 3.1 to 4
For PPGKHLVTEV [KCNA7, Q96RP8], the pKd was 4.52.

What follows are binders tested against GRID2IP_1, A4D2P6 (assay: holdup assay). Conditions: plain residues with an end cap or a label only (N-terminal biotin on a linker: ado-ado).
GRID2IP_1, A4D2P6, sequence (A4D2P6 1-87): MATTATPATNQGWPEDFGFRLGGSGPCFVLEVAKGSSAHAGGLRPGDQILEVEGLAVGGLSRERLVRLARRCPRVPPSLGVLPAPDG
Set-up: key: below the threshold = too weak to quantify, mostly under pKd 3.1 to 4
With PPGKHLVTEV [KCNA7, Q96RP8] the pKd was “below the threshold”.

These binders were tested against TJP1_2, Q07157 (assay: holdup assay). Conditions: plain residues with an end cap or a label only (N-terminal biotin on a linker: ado-ado).
TJP1_2, Q07157, sequence (Q07157 181-274): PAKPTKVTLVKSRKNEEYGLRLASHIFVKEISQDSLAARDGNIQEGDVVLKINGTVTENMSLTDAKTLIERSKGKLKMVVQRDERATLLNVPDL
Set-up: key: below the threshold = too weak to quantify, mostly under pKd 3.1 to 4
In the case of PPGKHLVTEV [KCNA7, Q96RP8], the pKd is reported as “below the threshold”.

These binders were tested against GIPC2, Q8TF65 (assay: holdup assay). Conditions: plain residues with an end cap or a label only (N-terminal biotin on a linker: ado-ado).
GIPC2, Q8TF65, sequence (Q8TF65 112-203): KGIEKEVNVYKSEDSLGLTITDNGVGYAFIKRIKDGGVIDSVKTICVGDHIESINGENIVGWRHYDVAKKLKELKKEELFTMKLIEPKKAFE
Set-up: key: below the threshold = too weak to quantify, mostly under pKd 3.1 to 4
For PPGKHLVTEV [KCNA7, Q96RP8], the pKd was “below the threshold”.

Each binder was assayed against LDB3, O75112 (assay: holdup assay). Conditions: plain residues with an end cap or a label only (N-terminal biotin on a linker: ado-ado).
LDB3, O75112, sequence (O75112 1-94): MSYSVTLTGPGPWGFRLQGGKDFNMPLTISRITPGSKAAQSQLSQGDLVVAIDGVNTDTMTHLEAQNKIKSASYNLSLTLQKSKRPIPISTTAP
Set-up: key: below the threshold = too weak to quantify, mostly under pKd 3.1 to 4
With PPGKHLVTEV [KCNA7, Q96RP8] the pKd was “below the threshold”.

What follows are binders tested against GOPC, Q9HD26 (assay: holdup assay). Conditions: plain residues with an end cap or a label only (N-terminal biotin on a linker: ado-ado).
Set-up: key: below the threshold = too weak to quantify, mostly under pKd 3.1 to 4
Work on PPGKHLVTEV [KCNA7, Q96RP8] yielded a pKd of 3.68.

These binders were tested against DLG1_3, Q12959 (assay: holdup assay). Conditions: plain residues with an end cap or a label only (N-terminal biotin on a linker: ado-ado).
Set-up: key: below the threshold = too weak to quantify, mostly under pKd 3.1 to 4
With PPGKHLVTEV [KCNA7, Q96RP8] the pKd was 4.09.

The binders below were run against DLG1_1, Q12959 (assay: holdup assay). Conditions: plain residues with an end cap or a label only (N-terminal biotin on a linker: ado-ado).
Set-up: key: below the threshold = too weak to quantify, mostly under pKd 3.1 to 4
Binder PPGKHLVTEV [KCNA7, Q96RP8] has a pKd of 4.76.

What follows are binders tested against T3, TIAM2, Q8IVF5 (assay: holdup assay). Conditions: plain residues with an end cap or a label only (N-terminal biotin on a linker: ado-ado).
Set-up: key: below the threshold = too weak to quantify, mostly under pKd 3.1 to 4
PPGKHLVTEV [KCNA7, Q96RP8] was tested, and the pKd was 4.01.

What follows are binders tested against DLG2_3, Q15700 (assay: holdup assay). Conditions: plain residues with an end cap or a label only (N-terminal biotin on a linker: ado-ado).
Set-up: key: below the threshold = too weak to quantify, mostly under pKd 3.1 to 4
PPGKHLVTEV [KCNA7, Q96RP8] showed a pKd of 4.71.

Each binder was assayed against Inadl_1, Q8NI35 (assay: holdup assay). Conditions: plain residues with an end cap or a label only (N-terminal biotin on a linker: ado-ado).
Inadl_1, Q8NI35, sequence (Q8NI35 113-229): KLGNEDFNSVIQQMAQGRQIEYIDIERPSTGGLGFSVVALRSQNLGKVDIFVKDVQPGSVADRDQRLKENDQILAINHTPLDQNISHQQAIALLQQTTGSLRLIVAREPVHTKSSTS
Set-up: key: below the threshold = too weak to quantify, mostly under pKd 3.1 to 4
With PPGKHLVTEV [KCNA7, Q96RP8] the pKd was “below the threshold”.

These binders were tested against MAGI2_2, Q86UL8 (assay: holdup assay). Conditions: plain residues with an end cap or a label only (N-terminal biotin on a linker: ado-ado).
MAGI2_2, Q86UL8, sequence (Q86UL8 410-522): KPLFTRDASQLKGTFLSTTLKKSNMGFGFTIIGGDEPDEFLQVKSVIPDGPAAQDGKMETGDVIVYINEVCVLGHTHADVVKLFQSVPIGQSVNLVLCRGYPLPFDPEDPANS
Set-up: key: below the threshold = too weak to quantify, mostly under pKd 3.1 to 4
For PPGKHLVTEV [KCNA7, Q96RP8], the pKd was 4.32.

Each binder was assayed against T4, MPDZ_10, O75970 (assay: holdup assay). Conditions: plain residues with an end cap or a label only (N-terminal biotin on a linker: ado-ado).
Set-up: key: below the threshold = too weak to quantify, mostly under pKd 3.1 to 4
For PPGKHLVTEV [KCNA7, Q96RP8], the pKd was “below the threshold”.

Each binder was assayed against T5, NHERF3_1, Q5T2W1 (assay: holdup assay). Conditions: plain residues with an end cap or a label only (N-terminal biotin on a linker: ado-ado).
Set-up: key: below the threshold = too weak to quantify, mostly under pKd 3.1 to 4
In the case of PPGKHLVTEV [KCNA7, Q96RP8], the pKd is reported as “below the threshold”.

What follows are binders tested against GORASP2, Q9H8Y8 (assay: holdup assay). Conditions: plain residues with an end cap or a label only (N-terminal biotin on a linker: ado-ado).
Set-up: key: below the threshold = too weak to quantify, mostly under pKd 3.1 to 4
Work on PPGKHLVTEV [KCNA7, Q96RP8] yielded a pKd of 4.39.

These binders were tested against T6, PCLO, Q9Y6V0 (assay: holdup assay). Conditions: plain residues with an end cap or a label only (N-terminal biotin on a linker: ado-ado).
Set-up: key: below the threshold = too weak to quantify, mostly under pKd 3.1 to 4
In the case of PPGKHLVTEV [KCNA7, Q96RP8], the pKd is reported as “below the threshold”.

Each binder was assayed against SCRIB_3, Q14160 (assay: holdup assay). Conditions: plain residues with an end cap or a label only (N-terminal biotin on a linker: ado-ado).
SCRIB_3, Q14160, sequence (Q14160 999-1103): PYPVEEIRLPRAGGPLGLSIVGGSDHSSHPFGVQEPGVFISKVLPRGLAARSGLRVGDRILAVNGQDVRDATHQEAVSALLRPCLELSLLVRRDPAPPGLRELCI
Set-up: key: below the threshold = too weak to quantify, mostly under pKd 3.1 to 4
Binder PPGKHLVTEV [KCNA7, Q96RP8] has a pKd of 4.56.

Each binder was assayed against DLG2_2, Q15700 (assay: holdup assay). Conditions: plain residues with an end cap or a label only (N-terminal biotin on a linker: ado-ado).
Set-up: key: below the threshold = too weak to quantify, mostly under pKd 3.1 to 4
Binder PPGKHLVTEV [KCNA7, Q96RP8] has a pKd of 5.01.

Each binder was assayed against MAGI2_3, Q86UL8 (assay: holdup assay). Conditions: plain residues with an end cap or a label only (N-terminal biotin on a linker: ado-ado).
MAGI2_3, Q86UL8, sequence (Q86UL8 600-682): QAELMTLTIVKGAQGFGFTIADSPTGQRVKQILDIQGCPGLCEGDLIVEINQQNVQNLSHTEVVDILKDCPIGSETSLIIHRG
Set-up: key: below the threshold = too weak to quantify, mostly under pKd 3.1 to 4
Work on PPGKHLVTEV [KCNA7, Q96RP8] yielded a pKd of 4.22.

What follows are binders tested against T7, GRIP1_3, Q9Y3R0 (assay: holdup assay). Conditions: plain residues with an end cap or a label only (N-terminal biotin on a linker: ado-ado).
Set-up: key: below the threshold = too weak to quantify, mostly under pKd 3.1 to 4
For PPGKHLVTEV [KCNA7, Q96RP8], the pKd was “below the threshold”.

These binders were tested against AHNAK1, Q09666 (assay: holdup assay). Conditions: plain residues with an end cap or a label only (N-terminal biotin on a linker: ado-ado).
AHNAK1, Q09666, sequence (Q09666 4-100): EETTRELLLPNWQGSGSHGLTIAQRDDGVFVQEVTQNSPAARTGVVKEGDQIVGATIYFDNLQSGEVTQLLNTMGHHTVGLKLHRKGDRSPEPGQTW
Set-up: key: below the threshold = too weak to quantify, mostly under pKd 3.1 to 4
PPGKHLVTEV [KCNA7, Q96RP8] was tested, and the pKd was “below the threshold”.

Each binder was assayed against T8, APBA1_1, Q02410 (assay: holdup assay). Conditions: plain residues with an end cap or a label only (N-terminal biotin on a linker: ado-ado).
Set-up: key: below the threshold = too weak to quantify, mostly under pKd 3.1 to 4
In the case of PPGKHLVTEV [KCNA7, Q96RP8], the pKd is reported as “below the threshold”.

What follows are binders tested against T9, GRIP1_7, Q9Y3R0 (assay: holdup assay). Conditions: plain residues with an end cap or a label only (N-terminal biotin on a linker: ado-ado).
Set-up: key: below the threshold = too weak to quantify, mostly under pKd 3.1 to 4
With PPGKHLVTEV [KCNA7, Q96RP8] the pKd was “below the threshold”.

The binders below were run against T10, GRIP1_2, Q9Y3R0 (assay: holdup assay). Conditions: plain residues with an end cap or a label only (N-terminal biotin on a linker: ado-ado).
Set-up: key: below the threshold = too weak to quantify, mostly under pKd 3.1 to 4
With PPGKHLVTEV [KCNA7, Q96RP8] the pKd was “below the threshold”.
